Results on 167 variants are retold here after the RNAGym collection of RNA variant scans (doi:10.7554/elife.80360).

To fix the notation:
B1: HDV Ribozyme (parent)
chain: GGCCGGCAUGGUCCCAGCCUCCUCGCUGGCGCCGGCUGGGCAACAUUCCGAGGGGACCGUCCCCUCGGUAAUGGCGAAUGGGACCCA

The series covers variants of B1. In words: self-cleavage, relative activity (ratio to wild type); higher = more cleavage; co-transcriptional.
Turning to C66G G68U, the self-cleavage is 0.812.
Then U65A C86G, with 1.12; and C63U A77G, with 0.882; and C63U A77U, with 0.698.
Then U65G G76U, with 0.966; and U65C C85U, with 0.997; and U65C C85G, with 0.807.
Consider C64G G76A, for which the self-cleavage was 0.862.
To C64U U69A belongs 1.02; to C64U G74C, 0.128; to C64U G74U, 0.569.
To C63U U69A belongs 0.975.
To U65A G68U belongs 0.87.
Turning to C64G A77C, the self-cleavage was determined as 0.431.
Then U65G G68C, with 0.673.
Then U65G G68U, with 0.491; and C64A G81A, with 0.386; and C63U G74U, with 0.583.
As for C66A G80C, the self-cleavage was 0.0845.
For U65A G82U, the self-cleavage is 0.217.
To C64A G67U belongs 0.425; to U65A A70C, 0.643; to U65A U72C, 0.511.
Then U65G C66A, with 0.9; and U65G A78U, with 0.569; and C63U C84G, with 0.63.
Take C63U C84U: the self-cleavage stood at 0.726.
To U65C A83C belongs 0.867.
Then C64U A83G, with 1.02.
To C64A G68A belongs 0.537; to C64A C84U, 0.694.
As to C66A G81U, the self-cleavage was 0.227.
Then C64U A87U, with 0.804; and C66A A87U, with 0.994.
To C64A A87G belongs 0.902.
Then C64G U72G, with 0.745.
With U65C G80A, the self-cleavage came out at 0.356.
Then C64A U79A, with 0.796; and C64A U79G, with 0.684; and C63G G74U, with 0.529.
Then C64U C86A, with 0.66; and C66A A71U, with 0.692; and U65G A77G, with 0.831.
Then C66A A77C, with 0.237; and C64A A77U, with 0.449.
With C64A A77G, the self-cleavage came out at 0.703.
To C63U A83G belongs 0.653.
Consider C63U A83C, for which the self-cleavage amounted to 0.502.
To U65A A78G belongs 0.831.
For the variant C66A G76A, the self-cleavage was determined as 1.13.
To C63U C85G belongs 0.959.
To U65G C85U belongs 0.831; to U65G C85G, 0.692.
To U65G A83U belongs 0.571; to C66A G67A, 0.864; to C64G G73U, 0.172.
C64G G73C: the self-cleavage is 0.324.
To U65C G82C belongs 0.252; to C64G C84A, 0.718; to C64G C84U, 0.831.
Turning to U65C U69C, the self-cleavage came to 1.02.
Then C64A C66U, with 0.567; and C63G C75U, with 0.154; and C64U A78U, with 0.297.
Take C64A A71G: the self-cleavage is 0.529.
Take C64U U79A: the self-cleavage was determined as 0.597.
Take U65G G82A: the self-cleavage was found to be 0.162.
In the case of C63U G73C, the self-cleavage is 0.618.
To U65C U72C belongs 0.609.
To U65C U72A belongs 0.665; to C64G U79G, 0.506; to C64G U79A, 0.692.
Then U65C C66U, with 1.04; and U65G G74A, with 0.3.
In the case of U65A G76C, the self-cleavage was found to be 1.11.
Then C66A A78C, with 0.142; and C64A G76C, with 0.95; and C64A G76A, with 0.997.
To C64A G76U belongs 0.858.
Regarding U65G U72G, the self-cleavage amounted to 0.748.
To C63U U65C belongs 1.14; to U65A U79C, 0.467; to U65A U79G, 0.492.
Turning to C63G U69C, the self-cleavage is 0.567.
For the variant C63G U69G, the self-cleavage is 0.731.
To C64U A71U belongs 1.12; to C64U A71G, 1.07.
Then C63G U79G, with 0.692.
Then U65C G81C, with 0.227; and C63G G76U, with 0.978.
Consider U65A G81U, for which the self-cleavage was determined as 0.353.
Then U65A G81C, with 0.502; and C63G A71C, with 0.782; and C66A C75A, with 0.248.
As to C64G G74A, the self-cleavage stood at 0.17.
Then C66A U79A, with 0.696; and U65C C86U, with 0.516; and C64U U72A, with 0.567.
Then C64G A78C, with 0.269; and C64G A78G, with 0.527; and C63U A70C, with 1.07.
Then U65A G74U, with 0.428; and C64A C85A, with 0.623.
As to C63G G80A, the self-cleavage was found to be 0.366.
Regarding U65G A87U, the self-cleavage was determined as 1.12.
Then U65C G74C, with 0.204.
As to C64A A83G, the self-cleavage is 0.857.
Regarding C66A G68U, the self-cleavage came out at 0.616.
To U65A C75A belongs 0.185; to C64U G67C, 0.906; to C66A G82C, 0.34.
To C66A G82U belongs 0.36.
Then C64G C75U, with 0.163.
On to U65G A70C, for which the self-cleavage turned out to be 0.601.
To U65G G73A belongs 0.363; to C64G A70U, 0.978.
To C63U belongs 1; to C66A C86G, 1.12.
To C66A C85U belongs 0.985; to C63G C86A, 0.95; to C63G C86U, 0.816.
Consider C66A C84G, for which the self-cleavage stood at 0.692.
Then C63U C66G, with 0.88.
Then U65G G81A, with 0.282; and C66G C84A, with 0.923; and C64U A77C, with 0.318.
On to C64U A77U, for which the self-cleavage was found to be 0.674.
To C64U G80U belongs 0.247; to C64U G80A, 0.397.
To C64U C85G belongs 0.851; to C64U C85U, 1.08; to C64U C75G, 0.106.
Then U65C A78G, with 0.731; and C64G C66G, with 0.742.
Consider C64G C66A, for which the self-cleavage was found to be 0.888.
Then C64G C66U, with 0.955.
Then C63G A87U, with 0.71; and C63U A71U, with 1.02.
As to C63U A71G, the self-cleavage came to 1.03.
With C63G C64G, the self-cleavage is 0.692.
To C66G C85A belongs 1.02.
For C66G C85U, the self-cleavage is 0.933.
To U65C A71G belongs 0.935; to U65A C84U, 0.799.
Regarding C64G C85U, the self-cleavage came to 1.17.
To C64G C85A belongs 0.956; to C64A C86G, 0.923.
Then C64A C86U, with 0.886; and C63G G68C, with 0.232; and C63G G73A, with 0.424.
Then C64G A71C, with 0.68.
For the variant C63G A78U, the self-cleavage came out at 0.185.
In the case of C66A U72C, the self-cleavage turned out to be 0.229.
To U65A A77U belongs 0.72.
Then C64A G80U, with 0.294; and C64A G80C, with 0.125; and C64G U65A, with 0.799.
To U65C G68U belongs 0.831.
Take U65G G80U: the self-cleavage came to 0.261.
To C64G G81C belongs 0.208; to C66G A77C, 0.262.
To U65G C86U belongs 0.966; to C66G C75U, 0.157; to C64G A87G, 0.853.
On to C64G A87C, for which the self-cleavage worked out at 0.778.
As to C64G A87U, the self-cleavage amounted to 0.786.
With C63U G81U, the self-cleavage came out at 0.361.
